Like-named read-outs stand apart in the source and are kept apart here.
What was measured:
Assay type in all cases: cell-based
SNB-19 = assay: NCI60 in vitro screening, CNS Cancer
OVCAR-5 = assay: NCI60 in vitro screening, Ovarian Cancer
RPMI-8226 = assay: NCI60 in vitro screening, Leukemia
HT29 = assay: NCI60 in vitro screening, Colon Cancer
SF-268 = assay: NCI60 in vitro screening, CNS Cancer
SN12C = assay: NCI60 in vitro screening, Renal Cancer
HOP-62 = tested on: HOP-62
HL-60(TB) = tested on: HL-60(TB)

B1: GMI: immunomodulatory protein from Ganoderma microsporum, amino acid sequence SEQ ID NO: 3, manufactured by Mycomagic Biotechnology Co., Ltd. (protein, listed as Ganoderma microsporum)
chain: MSDTALIFTLAWNVKQLAFDYTPNWGRGRPSSFIDTVTFPTVLTDKAYTYRVVVSGKDLGVRPSYAVESDGSQKINFLEYNSGYGIADTNTIQVYVIDPDTGNNFIVAQWN
TGI (SNB-19; SNB-19): 4.27E1
Percent Growth (SNB-19; SNB-19, Log10 Concentration 0.1): 95%
Percent Growth (SNB-19; SNB-19, Log10 Concentration 1.1): 66%
Percent Growth (SNB-19; SNB-19, Log10 Concentration 2.1): −58%
Percent Growth (SNB-19; SNB-19, Log10 Concentration −0.9): 98%
Percent Growth (SNB-19; SNB-19, Log10 Concentration −1.9): 98%
Growth Percent (SNB-19; SNB-19, one dose): 58.70%
GI50 (SNB-19; SNB-19, in µg/mL): 1.69E1
LC50 (SNB-19; SNB-19, in µg/mL): 1.08E2
TGI (OVCAR-5; OVCAR-5): >1.25E2
Percent Growth (OVCAR-5; OVCAR-5, Log10 Concentration 0.1): 98%
Percent Growth (OVCAR-5; OVCAR-5, Log10 Concentration 1.1): 89%
Percent Growth (OVCAR-5; OVCAR-5, Log10 Concentration 2.1): 66%
Percent Growth (OVCAR-5; OVCAR-5, Log10 Concentration −0.9): 100%
Percent Growth (OVCAR-5; OVCAR-5, Log10 Concentration −1.9): 101%
Growth Percent (OVCAR-5; OVCAR-5, one dose): 107.85%
TGI (RPMI-8226; RPMI-8226): >1.25E2
Percent Growth (RPMI-8226; RPMI-8226, Log10 Concentration 0.1): 105%
Percent Growth (RPMI-8226; RPMI-8226, Log10 Concentration 1.1): 100%
Percent Growth (RPMI-8226; RPMI-8226, Log10 Concentration 2.1): 72%
Percent Growth (RPMI-8226; RPMI-8226, Log10 Concentration −0.9): 102%
Percent Growth (RPMI-8226; RPMI-8226, Log10 Concentration −1.9): 105%
Growth Percent (RPMI-8226; RPMI-8226, one dose): 96.01%
TGI (HT29; HT29): >1.25E2
Percent Growth (HT29; HT29, Log10 Concentration 0.1): 98%
Percent Growth (HT29; HT29, Log10 Concentration 1.1): 57%
Percent Growth (HT29; HT29, Log10 Concentration 2.1): 22%
Percent Growth (HT29; HT29, Log10 Concentration −0.9): 99%
Percent Growth (HT29; HT29, Log10 Concentration −1.9): 100%
Growth Percent (HT29; HT29, one dose): 28.36%
GI50 (HT29; HT29, in µg/mL): 1.95E1
TGI (SF-268; SF-268): >1.25E2
Percent Growth (SF-268; SF-268, Log10 Concentration 0.1): 108%
Percent Growth (SF-268; SF-268, Log10 Concentration 1.1): 52%
Percent Growth (SF-268; SF-268, Log10 Concentration 2.1): 4%
Percent Growth (SF-268; SF-268, Log10 Concentration −0.9): 101%
Percent Growth (SF-268; SF-268, Log10 Concentration −1.9): 95%
Growth Percent (SF-268; SF-268, one dose): 39.72%
GI50 (SF-268; SF-268, in µg/mL): 2.02E1
TGI (SN12C): >1.25E2
Percent Growth (SN12C; Log10 Concentration 0.1): 99%
Percent Growth (SN12C; Log10 Concentration 1.1): 81%
Percent Growth (SN12C; Log10 Concentration 2.1): 30%
Percent Growth (SN12C; Log10 Concentration −0.9): 104%
Percent Growth (SN12C; Log10 Concentration −1.9): 102%
GI50 (SN12C; in µg/mL): 5.05E1
Growth Percent (SN12C; one dose): 74.30%
TGI (HOP-62; HOP-62): 5.99E1
Percent Growth (HOP-62; HOP-62, Log10 Concentration 0.1): 102%
Percent Growth (HOP-62; HOP-62, Log10 Concentration 1.1): 73%
Percent Growth (HOP-62; HOP-62, Log10 Concentration 2.1): −34%
Percent Growth (HOP-62; HOP-62, Log10 Concentration −0.9): 102%
Percent Growth (HOP-62; HOP-62, Log10 Concentration −1.9): 104%
Growth Percent (HOP-62; HOP-62, one dose): 53.89%
GI50 (HOP-62; HOP-62, in µg/mL): 2.03E1
TGI (HL-60(TB)): >1.25E2
Percent Growth (HL-60(TB); Log10 Concentration 0.1): 105%
Percent Growth (HL-60(TB); Log10 Concentration 1.1): 105%
Percent Growth (HL-60(TB); Log10 Concentration 2.1): 92%

From patent US9018171B2, “Uses of an immunomodulatory protein (GMI) from Ganoderma microsporum” (Mycomagic Biotechnology Co., Ltd., priority 2010, dated 2015)
